# Laboratory results as given in patent publication US20260069689A1 (Regeneron, published 2026).
# Changes are numbered by the printed parent chain.
# B1: mAb14235 (antibody, V domains shown)
# VH: QITLKESGPTLVKPTQTLTLTCTFSGFSLNTGGVGVGWIRQPPGNALEWLALIYWDDDKRYNPSLKTRLTISKDTSKNQVVLTMTNMDPVDTATYFCAHLTIAVIVDFWGQGTLVTVSS
# VL: QSALTQPASVSGSPGQSITISCTATSSDVGTYNYVSWFQHHPGKAPKLMIYEVTNRPSGVSNRFSGSKSGNTASLTISGLQAEDEADYYCSSYTTTSIVFGGGTKLTVLG
# B2: mAb14282 (antibody, V domains shown)
# VH: QVQLVQSGAEVKKPGASVKVSCKASGYIFTDHYMHWVRQAPGQGLEWMGWINPNSGATNYAQNFQGRVTMTRDTSIITVYMELSRLRSDDTAVYYCARDSSPYMIRYTMDVWGQGTTITVSS
# VL: QSALTQPASVSGSPGQSITISCTGTSSDVGSYNLVSWYQQHPGKAPKLMIYELTKRPSGVSNRFSGSKSGNTASLTISGLQAEDEADYYCSSYRGSVTDVVFGGGTKLTVLG
# B3: mAb14230 (antibody, V domains shown)
# VH: EVQLVESGGGLIQPGRSLRLSCAASGFTFDDYAMHWVRQAPGKGLEWVSGISWNSVSIDYADSVKGRFTISRDNAKNSLYLQMTSLTVEDTALYYCAKAFGYETLTGSDYFAYWGPGTLVTVSS
# VL: EIVLTQSPGTLSLSPGERATLSCRASQTVISTYLAWYQQKPGQSPRLLIYGASSRATGIPDRFSGSGSGTDFTLTISRLEPEDFAVYYCQQYGSSPQLTFGGGTKVEIKR
# B4: mAb14257 (antibody, V domains shown)
# VH: EVQLVESGGGLVQPGGSLRLSCAASGFTVSRSYMNWVRQAPGKGLEWVSVVFTGGTTKHTDSVKGRFTISRDNSMNTLYLQMNSLRPEDTAVYYCARVAIVETTGAFDIWGQGTMVTVSS
# VL: QSVLTQPPSVSGAPGQRVTISCTGTSSNIGADFDVHWYQQFPGTAPKLLIYGHTNRPSGIPDRFSGSKSGTSASLAITGLQAEDEADYYCQSYDSSLSGSVVFGGGTKLTVLG
# B5: mAb14283 (antibody, V domains shown)
# VH: QVQLQESGPGLVKPSGTLSLTCDVSGGSISSNNWWSWVRQRPGKGLQWIGEIYHNENTNYNPSLKSRVIMSIDKSKNQFSLKLTSVTAADTAVYYCARGDVLDWFDPWGQGTLVTVSS
# VL: QSALTQPASVSGSPGQSTTISCTGTSSDVGGYNYVSWYQQYPGKAPKLMIYDVTNRPSGVSHRFSGSKSGNTASLTISGLQAEDEADYYCSSYTSSSTVIFGGGTKLTVLG
# B6: mAb14286 (antibody, V domains shown)
# VH: QVQLVQSGAEVKKPGASVKVSCKASGYTFTDYFIHWVRQAPGQGLEWMGWINPTSGGTNYAQKFRGRVTMTRDTSISTAYVELSRLRSDDTALYYCARDLPFYSDTKQFDYWGQGTLVTVSS
# VL: B5 VL with S13Y, T18I, Y41H, Y51F, T54S, H62N, I77F, V99L, I100V
# B7: mAb13458 (antibody, V domains shown)
# VH: EVQLVESGGGLVQPGRSLRLSCAASGFTFDDYAMHWVRQAPGKGLEWVSGISWNSGSIGYADSVKGRFTISRDNAKNSLYLQMNSLRAEDTALYYCAKDIGITTPYWGQGTLVTVSS
# VL: AIQMTQSPSSLSASVGDRVTITCRASQDIRNDLGWYQQKPGKAPKLLIYSASSLQTGVPSRFSGSGSGTDFTLTISSLHPEDFATYYCLQDYWYTWTFGQGTKVEIKR
# B8: mAb13459 (antibody, V domains shown)
# VH: B7 VH
# VL: B7 VL with W93N, T95V
# B9: mAb13457 (antibody, V domains shown)
# VH: B7 VH
# VL: B7 VL with W93D
# B10: mAb14313 (antibody, V domains shown)
# VH: EVQLVESGGGLVQPGRSLRLSCVASGFTFDDSAMHWVRQPPGKGLEWVSGISWNSGIIGYAESVKGRFIISRDNAKNSLFLHMRGLRPEDTAVYYCARDRLELSYYYYGMDVWGQGTTVTVSS
# VL: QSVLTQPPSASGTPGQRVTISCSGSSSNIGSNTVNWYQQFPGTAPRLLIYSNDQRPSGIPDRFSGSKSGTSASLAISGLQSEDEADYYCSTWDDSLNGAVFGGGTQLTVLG
# B11: mAb14294 (antibody, V domains shown)
# VH: EVQLVESGGGLVQPGGSLRLSCAASGFTFSNHWMDWVRQAPGKGLVWVSRINSDGSSTDYADSVRGRFTMSRDNAKNTLYLQMSSLRAEDTAVYYCAREGMIFGAVIIPGWYFDLWGRGALVTVSS
# VL: EIVLTQSPGTLSLSPGERATLSCRASQSVSSSQLAWYQQKPGQAPRLLIYGASSRATGIPDRFSGSGSGTDFTLTISRLEPEDFAVYYCQQYDSFGQGTKLEIKR
# B12: mAb14247 (antibody, V domains shown)
# VH: QITLKESGPTLVKPTQTLTLTCTFSGFSLSTSAVGVGWIRQPPGKALEWLALIYWDDDKRYSPSLKSRLTITKDTSKNQLVLTMTNVDPVDTATYYCAHHTIQLIFDYWGQGTLVTVSS
# VL: QSALTQPASVSGSPGQSITISCTATSSDVGNYNYVSWYQQHPGKAPKLMIYEVSNRPSGVSNRFSGSKSGNTASLTISGLQAEDEADYYCSSYTSSSTPLVFGGGTKLTVLG
# B13: mAb14281 (antibody, V domains shown)
# VH: QVQLVQSGADVKKPGASVKVSCKTSGYIFTGYYIHWVRQAPGQGLEWMGWINPNSGGTNSAQKFQGRVTMTRDTSISTVYMELSRLRSDDTAVYYCAKSNSFSVLDYNFDYWGQGTLVTVSS
# VL: SSELTQDPAVSVALGQTVRITCQGDSLRSYYASWYQQKPGQAPVLVIYDKNNRPSGIPDRFSGSSSGNTASLTITGAQAEDEADYYCNSRDSSRNHLVVFGGGTKLTVLG
# B14: mAb14289 (antibody, V domains shown)
# VH: QVQLVQSGPEVKKPGASVKVSCKASGYTFTSYAISWVRQAPGQGLEWMGWISAYNGNTNYAQKLQGRVTMTTDTFTSTAYMELRSLRSDDTAVYYCAVPADHITFDYWGQGTLVTVSS
# VL: EIVLTQSPGTLSLSPGERATLSCRASQSVSSYLAWYQQKPGQAPRLLIHGASSRATGIPDRFSGSGSGTDFTLTISRLEPEDFAVYYCQQYGSSFLTFGGGTKVEIKR
# B15: mAb14255 (antibody, V domains shown)
# VH: QVQLQESGPGLVKPSETLSLTCTVSGGSISGYYWSWIRQPPGKGLDWIGYIYYRGNTNYNPSLKSRVTISVDTSNNQFSLKLSSVTAADTAVYYCARYGEGYGDASGYHFDYWGQGTLVTVSS
# VL: QSALTQPASVSGSPGQSITISCTGTSSDVGSYNLVSWYQQHPGKAPKLMIYEDSKRPSGVANPFSGSKSGNTASLTISGLQAEDEADYYCSSYAGSSTWVFGGGTKLTVLG
# B16: mAb14258 (antibody, V domains shown)
# VH: QLQLQESGPGLVKPSETLSLICTGSGDSISSSHYYWGWIRQPPGKGLEWIGSTYFSGSTYYNPSLKSRVSISVDTSKNQVSLKLISVTAADTAVYYCAREMGATLGDYWGPGTLVTVSS
# VL: QSVLTQPPSASGTPGQRVTISCSGSSSNIGNNYVYWYQQFPGTTPRLLIYRNNERPSGVPDRFSGSKSGTSASLVISGLRSEDEADYYCAAWDDSLSAHYVFGTGTKVTVLG
# B17: mAb14315 (antibody, V domains shown)
# VH: QVQLVQSGAEVKKPGSSVKVSCKASGDTFSTYAINWVRQAPGQGLEWMGRFIHIFGTANYAQKFQGRVTITADESTSTAYMELRSLRSEDTAVYYCARDGVDYGDYRPDYWGQGTLVTVSS
# VL: EIVLTQSPGTLSLSPGERATLSCRASQSVSSNYLAWYQQKPGQAPRLLIYGASSRATGIPERFSGSGSGTDFTLTISRLEPEDFAVYYCQQYGSSLYTFGQGTKLEIKR
# Tests used:
# [1] = target: T1, SARS-CoV2 Spike ecto foldon Trimer expressed with a C-terminal myc-myc-hexahistidine (SARS-CoV-2, UniProt P0DTC2 14-1213); assay: SPR Biacore, mAb captured by anti-hFc, 37C
# T1 construct: extracellular domain
# [2] = target: T1, SARS-CoV2 Spike ecto foldon Trimer …; assay: SPR Biacore, mAb captured by anti-hFc, 25C
binder,measurement,setting,value
B1,Kd,[1],51.7 pM
same,koff,[1],3.8e-05 s⁻¹
same,kon,[1],735000 M⁻¹ s⁻¹
same,t½,[1],5.07 h
same,Kd,[2],47.4 pM
same,koff,[2],3.69e-05 s⁻¹
same,kon,[2],779000 M⁻¹ s⁻¹
same,t½,[2],5.21 h
B2,Kd,[1],162 pM
same,koff,[1],0.000171 s⁻¹
same,kon,[1],1.05e+06 M⁻¹ s⁻¹
same,t½,[1],1.13 h
same,Kd,[2],62.4 pM
same,koff,[2],0.000133 s⁻¹
same,kon,[2],2.14e+06 M⁻¹ s⁻¹
same,t½,[2],1.44 h
B3,Kd,[1],99.1 pM
same,koff,[1],8.97e-05 s⁻¹
same,kon,[1],906000 M⁻¹ s⁻¹
same,t½,[1],2.14 h
same,Kd,[2],40.4 pM
same,koff,[2],6.09e-05 s⁻¹
same,kon,[2],1.51e+06 M⁻¹ s⁻¹
same,t½,[2],3.16 h
B4,Kd,[1],141 pM
same,koff,[1],0.000165 s⁻¹
same,kon,[1],1.17e+06 M⁻¹ s⁻¹
same,t½,[1],1.17 h
same,Kd,[2],43.4 pM
same,koff,[2],0.000107 s⁻¹
same,kon,[2],2.45e+06 M⁻¹ s⁻¹
same,t½,[2],1.81 h
B5,Kd,[1],84.7 pM
same,koff,[1],7.32e-05 s⁻¹
same,kon,[1],865000 M⁻¹ s⁻¹
same,t½,[1],2.63 h
same,Kd,[2],53.9 pM
same,koff,[2],8.66e-05 s⁻¹
same,kon,[2],1.61e+06 M⁻¹ s⁻¹
same,t½,[2],2.22 h
B6,Kd,[1],54.4 pM
same,koff,[1],0.000141 s⁻¹
same,kon,[1],2.59e+06 M⁻¹ s⁻¹
same,t½,[1],1.37 h
same,Kd,[2],33.1 pM
same,koff,[2],8.71e-05 s⁻¹
same,kon,[2],2.63e+06 M⁻¹ s⁻¹
same,t½,[2],2.21 h
B7,Kd,[1],50 pM
same,koff,[1],4.08e-05 s⁻¹
same,kon,[1],815000 M⁻¹ s⁻¹
same,t½,[1],4.72 h
same,Kd,[2],35.1 pM
same,koff,[2],4.26e-05 s⁻¹
same,kon,[2],1.21e+06 M⁻¹ s⁻¹
same,t½,[2],4.52 h
B8,Kd,[1],59.9 pM
same,koff,[1],4.76e-05 s⁻¹
same,kon,[1],794000 M⁻¹ s⁻¹
same,t½,[1],4.05 h
same,Kd,[2],38.9 pM
same,koff,[2],5.46e-05 s⁻¹
same,kon,[2],1.41e+06 M⁻¹ s⁻¹
same,t½,[2],3.52 h
B9,Kd,[1],77.9 pM
same,t½,[1],3.22 h
same,Kd,[2],71.8 pM
same,t½,[2],3.49 h
B10,Kd,[1],98.4 pM
same,koff,[1],9.94e-05 s⁻¹
same,kon,[1],1.01e+06 M⁻¹ s⁻¹
same,t½,[1],1.94 h
same,Kd,[2],56.5 pM
same,koff,[2],0.000113 s⁻¹
same,kon,[2],2e+06 M⁻¹ s⁻¹
same,t½,[2],1.7 h
B11,Kd,[1],33 pM
same,koff,[1],2.29e-05 s⁻¹
same,kon,[1],694000 M⁻¹ s⁻¹
same,t½,[1],8.4 h
same,Kd,[2],32.9 pM
same,koff,[2],2.29e-05 s⁻¹
same,kon,[2],697000 M⁻¹ s⁻¹
same,t½,[2],8.39 h
B12,Kd,[1],70.1 pM
same,koff,[1],4.72e-05 s⁻¹
same,kon,[1],674000 M⁻¹ s⁻¹
same,t½,[1],4.08 h
same,Kd,[2],52.1 pM
same,koff,[2],4.91e-05 s⁻¹
same,kon,[2],944000 M⁻¹ s⁻¹
same,t½,[2],3.92 h
B13,Kd,[1],139 pM
same,koff,[1],0.000116 s⁻¹
same,kon,[1],834000 M⁻¹ s⁻¹
same,t½,[1],1.66 h
same,Kd,[2],97 pM
same,koff,[2],8.09e-05 s⁻¹
same,kon,[2],834000 M⁻¹ s⁻¹
same,t½,[2],2.38 h
B14,Kd,[1],72.8 pM
same,koff,[1],6.63e-05 s⁻¹
same,kon,[1],911000 M⁻¹ s⁻¹
same,t½,[1],2.91 h
same,Kd,[2],69.6 pM
same,koff,[2],6.35e-05 s⁻¹
same,kon,[2],912000 M⁻¹ s⁻¹
same,t½,[2],3.03 h
B15,Kd,[1],155 pM
same,koff,[1],0.000161 s⁻¹
same,kon,[1],1.03e+06 M⁻¹ s⁻¹
same,t½,[1],1.2 h
same,Kd,[2],70.6 pM
same,koff,[2],0.000138 s⁻¹
same,kon,[2],1.96e+06 M⁻¹ s⁻¹
same,t½,[2],1.39 h
B16,Kd,[1],77.6 pM
same,koff,[1],7.93e-05 s⁻¹
same,kon,[1],1.02e+06 M⁻¹ s⁻¹
same,t½,[1],2.43 h
same,Kd,[2],23.2 pM
same,koff,[2],4.91e-05 s⁻¹
same,kon,[2],2.12e+06 M⁻¹ s⁻¹
same,t½,[2],3.92 h
B17,Kd,[1],43.7 pM
same,koff,[1],3.25e-05 s⁻¹
same,kon,[1],743000 M⁻¹ s⁻¹
same,t½,[1],5.93 h
same,Kd,[2],48.3 pM
same,koff,[2],3.15e-05 s⁻¹
same,kon,[2],652000 M⁻¹ s⁻¹
same,t½,[2],6.1 h
